Measured values reported in patent US20230348854A1.

What was measured:
[1] = target: Human NKp46 (NCR1, CD335), on cells (human) (UniProt O76036); test: cell-based or functional assay
[2] = target: Human CD94/NKG2A inhibitory receptor (CD159a), on NK cells (human) (UniProt Q13241); test: cell-based or functional assay

UniProt O76036, sequence (O76036 22-304 Q82K limits assumed): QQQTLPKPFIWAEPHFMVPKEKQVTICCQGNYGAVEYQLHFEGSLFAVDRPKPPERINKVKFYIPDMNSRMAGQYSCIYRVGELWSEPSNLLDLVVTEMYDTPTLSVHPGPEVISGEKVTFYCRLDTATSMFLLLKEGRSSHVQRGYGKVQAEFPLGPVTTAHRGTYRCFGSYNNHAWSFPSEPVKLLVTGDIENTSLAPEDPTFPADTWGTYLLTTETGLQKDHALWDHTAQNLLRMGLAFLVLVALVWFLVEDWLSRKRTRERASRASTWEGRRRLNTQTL

percentage of live NKp46-expressing K562 target cells after 24 hours with CAR T cells, 2:1 [1] [%]	Substance	autologous primary NK cells killed, 2:1 E:T [2] [%]
16.2	anti-CD19 CAR (αCD19 control CAR), expressed on primary human T cells (scFv)	–
–	anti-NKG2A (HLA-E) CAR (αNKG2A CAR): G peptide/B2M/HLA-E 01:03 single-chain trimer fused to 4-1BB/CD3 zeta, expressed on primary human T cells (peptide-MHC)	64
